Results on ten molecules are retold here after PMC12207370, “Macrocyclic Peptide Probes for Immunomodulatory Protein CD59: Potent Modulators of Bacterial Toxin Activity and Antibody‐Dependent Cytotoxicity” (Angewandte Chemie (International Ed. in English), 2025).

In this assay the target is T1, CD59 (immobilized for SPR), P13987.
T1 chain: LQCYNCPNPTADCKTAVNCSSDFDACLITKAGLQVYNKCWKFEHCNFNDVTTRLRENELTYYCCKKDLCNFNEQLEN
As to the kind of experiment: SPR. Particulars: chain shown with the change, n = 1; for other: pKD (-Log10(KD)): parent: est. 8.0, read off a plot.

On to YSWTWGNASSVRGC [CP-06 R8A], for which the other: pKD (-Log10(KD)) is 7.8.

Regarding YSWTWANRSSVRGC [CP-06 G6A], the ratio to parent came out at 21 and the other: pKD (-Log10(KD)) was found to be 6.7.

In the case of YSWTWGNRSSARGC [CP-06 V11A], the other: pKD (-Log10(KD)) was found to be 7.6.

For YSWAWGNRSSVRGC [CP-06 T4A], the other: pKD (-Log10(KD)) came out at 7.8.

As to YAWTWGNRSSVRGC [CP-06 S2A], the other: pKD (-Log10(KD)) was 7.9.

For the molecule YSWTWGNRASVRGC [CP-06 S9A], the other: pKD (-Log10(KD)) was determined as 7.7.

On to YSWTWGARSSVRGC [CP-06 N7A], for which the ratio to parent was 19 and the other: pKD (-Log10(KD)) worked out at 6.7.

YSWTAGNRSSVRGC [CP-06 W5A]: the ratio to parent came out at 19 and the other: pKD (-Log10(KD)) is 6.7.

As to YSWTWGNRSAVRGC [CP-06 S10A], the other: pKD (-Log10(KD)) worked out at 8.

Take YSWTWGNRSSVAGC [CP-06 R12A]: the other: pKD (-Log10(KD)) was determined as 7.1.
